Here are results for one substance from paper doi:10.1101/2024.11.29.625639.

This experiment deals with HCMV gHgLgO trimer with gO249 mutant, from virions (human cytomegalovirus, strain TB40/E (TB40-BAC4)). Description: co-IP + pull-down.

As for “HCMV glycoprotein gB, from virions (natural protein)”, the fold change of the interaction with gB against gHgLgOWT turned out to be 4 fold.
